From IntAct's records for PubMed 29892012

B1: E3 ubiquitin-protein ligase LNX (Homo sapiens), Q8TBB1 (parent)
chain: MNQPESANDPEPLCAVCGQAHSLEENHFYSYPEEVDDDLICHICLQALLDPLDTPCGHTYCTLCLTNFLVEKDFCPMDRKPLVLQHCKKSSILVNKLLNKLLVTCPFREHCTQVLQRCDLEHHFQTSCKGASHYGLTKDRKRRSQDGCPDGCASLTATAPSPEVSAAATISLMTDEPGLDNPAYVSSAEDGQPAISPVDSGRSNRTRARPFERSTIRSRSFKKINRALSVLRRTKSGSAVANHADQGRENSENTTAPEVFPRLYHLIPDGEITSIKINRVDPSESLSIRLVGGSETPLVHIIIQHIYRDGVIARDGRLLPGDIILKVNGMDISNVPHNYAVRLLRQPCQVLWLTVMREQKFRSRNNGQAPDAYRPRDDSFHVILNKSSPEEQLGIKLVRKVDEPGVFIFNVLDGGVAYRHGQLEENDRVLAINGHDLRYGSPESAAHLIQASERRVHLVVSRQVRQRSPDIFQEAGWNSNGSWSPGPGERSNTPKPLHPTITCHEKVVNIQKDPGESLGMTVAGGASHREWDLPIYVISVEPGGVISRDGRIKTGDILLNVDGVELTEVSRSEAVALLKRTSSSIVLKALEVKEYEPQEDCSSPAALDSNHNMAPPSDWSPSWVMWLELPRCLYNCKDIVLRRNTAGSLGFCIVGGYEEYNGNKPFFIKSIVEGTPAYNDGRIRCGDILLAVNGRSTSGMIHACLARLLKELKGRITLTIVSWPGTFL
partner: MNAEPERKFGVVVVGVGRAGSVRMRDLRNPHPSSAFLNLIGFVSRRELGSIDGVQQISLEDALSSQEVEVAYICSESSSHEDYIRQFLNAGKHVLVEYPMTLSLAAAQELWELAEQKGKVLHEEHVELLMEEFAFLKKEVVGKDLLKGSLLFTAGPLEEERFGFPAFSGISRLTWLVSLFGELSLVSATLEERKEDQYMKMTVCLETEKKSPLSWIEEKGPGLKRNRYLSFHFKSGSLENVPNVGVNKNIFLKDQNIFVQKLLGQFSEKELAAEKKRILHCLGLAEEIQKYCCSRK
B2: E3 ubiquitin-protein ligase DZIP3 (Homo sapiens), Q86Y13 (parent)
chain: MDSLPDEFFVRHPAVEDQRKEETENKLEKSSGQLNKQENDIPTDLVPVNLLLEVKKLLNAINTLPKGVVPHIKKFLQEDFSFQTMQREVAANSQNGEEIVPALTLRFLITQLEAALRNIQAGNYTAHQINIGYYLTLLFLYGVALTERGKKEDYTEAENKFLVMKMMIQENEICENFMSLVYFGRGLLRCAQKRYNGGLLEFHKSLQEIGDKNDHWFDIDPTEDEDLPTTFKDLLNNFIKTTESNIMKQTICSYLDCERSCEADILKNTSYKGFFQLMCSKSCCVYFHKICWKKFKNLKYPGENDQSFSGKKCLKEGCTGDMVRMLQCDVPGIVKILFEVVRKDEYITIENLGASYRKLISLKITDTDIRPKISLKFNTKDEMPIFKLDYNYFYHLLHIIIISGTDIVRQIFDEAMPPPLLKKELLIHKNVLESYYNHLWTNHPLGGSWHLLYPPNKELPQSKQFDLCLLLALIKHLNVFPAPKKGWNMEPPSSDISKSADILRLCKYRDILLSEILMNGLTESQFNSIWKKVSDILLRLGMMQEDIDKVKENPIENISLDYHQLSVYLGIPVPEIIQRMLSCYQQGIALQSITGSQRIEIEELQNEEEELSPPLMEYNINVKSHPEIQFAEINKDGTSIPSESSTESLKDLQEVKSKQRKKKKTKNKKNKDSKEDQVPYVVEKEEQLRKEQANPHSVSRLIKDDASDVQEDSAMEDKFYSLDELHILDMIEQGSAGKVTTDYGETEKERLARQRQLYKLHYQCEDFKRQLRTVTFRWQENQMQIKKKDKIIASLNQQVAFGINKVSKLQRQIHAKDNEIKNLKEQLSMKRSQWEMEKHNLESTMKTYVSKLNAETSRALTAEVYFLQCRRDFGLLHLEQTEKECLNQLARVTHMAASNLESLQLKAAVDSWNAIVADVRNKIAFLRTQYNEQINKVKQGFALSTLPPVQLPPPPPSPEILMQQFLGRPLVKESFFRPILTVPQMPAVCPGVVSATGQPRAPLMTGIAWALPAPVGDAVPPSAGLRSDPSIMNWERITDRLKTAFPQQTRKELTDFLRKLKDAYGKSLSELTFDEIVCKISQFIDPKKSQSQGKSVSNVNCVSPSHSPSQPDAAQPPKPAWRPLTSQGPATWEGASNPDEEEEEEEPCVICHENLSPENLSVLPCAHKFHAQCIRPWLMQQGTCPTCRLHVLLPEEFPGHPSRQLPKI
partner: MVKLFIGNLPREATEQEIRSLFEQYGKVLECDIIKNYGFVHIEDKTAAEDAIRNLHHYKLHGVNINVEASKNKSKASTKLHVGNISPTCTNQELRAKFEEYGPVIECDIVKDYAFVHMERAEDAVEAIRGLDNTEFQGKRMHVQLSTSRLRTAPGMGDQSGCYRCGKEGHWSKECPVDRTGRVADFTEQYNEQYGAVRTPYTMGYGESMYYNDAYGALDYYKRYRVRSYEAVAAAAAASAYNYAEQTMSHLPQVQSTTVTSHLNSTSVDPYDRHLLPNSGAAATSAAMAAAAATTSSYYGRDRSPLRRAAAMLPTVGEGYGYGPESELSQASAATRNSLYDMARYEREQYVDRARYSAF
B3: E3 ubiquitin-protein ligase LNX (Homo sapiens), Q8TBB1 (parent)
chain: B1 chain
partner: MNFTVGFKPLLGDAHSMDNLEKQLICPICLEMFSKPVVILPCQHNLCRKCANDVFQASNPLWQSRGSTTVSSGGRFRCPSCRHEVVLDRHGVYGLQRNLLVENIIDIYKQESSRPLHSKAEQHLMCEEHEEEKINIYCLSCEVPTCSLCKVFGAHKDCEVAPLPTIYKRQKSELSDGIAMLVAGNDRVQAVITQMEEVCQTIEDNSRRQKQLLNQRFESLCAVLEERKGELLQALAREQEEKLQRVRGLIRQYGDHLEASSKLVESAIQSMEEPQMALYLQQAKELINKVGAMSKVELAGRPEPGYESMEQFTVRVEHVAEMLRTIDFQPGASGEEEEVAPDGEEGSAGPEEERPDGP
B4: E3 ubiquitin-protein ligase DZIP3 (Homo sapiens), Q86Y13 (parent)
chain: B2 chain
B5: Acetylcholine receptor subunit gamma (Homo sapiens), P07510 (parent)
chain: MHGGQGPLLLLLLLAVCLGAQGRNQEERLLADLMQNYDPNLRPAERDSDVVNVSLKLTLTNLISLNEREEALTTNVWIEMQWCDYRLRWDPRDYEGLWVLRVPSTMVWRPDIVLENNVDGVFEVALYCNVLVSPDGCIYWLPPAIFRSACSISVTYFPFDWQNCSLIFQSQTYSTNEIDLQLSQEDGQTIEWIFIDPEAFTENGEWAIQHRPAKMLLDPAAPAQEAGHQKVVFYLLIQRKPLFYVINIIAPCVLISSVAILIHFLPAKAGGQKCTVAINVLLAQTVFLFLVAKKVPETSQAVPLISKYLTFLLVVTILIVVNAVVVLNVSLRSPHTHSMARGVRKVFLRLLPQLLRMHVRPLAPAAVQDTQSRLQNGSSGWSITTGEEVALCLPRSELLFQQWQRQGLVAAALEKLEKGPELGLSQFCGSLKQAAPAIQACVEACNLIACARHQQSHFDNGNEEWFLVGRVLDRVCFLAMLSLFICGTAGIFLMAHYNRVPALPFPGDPRPYLPSPD
partner: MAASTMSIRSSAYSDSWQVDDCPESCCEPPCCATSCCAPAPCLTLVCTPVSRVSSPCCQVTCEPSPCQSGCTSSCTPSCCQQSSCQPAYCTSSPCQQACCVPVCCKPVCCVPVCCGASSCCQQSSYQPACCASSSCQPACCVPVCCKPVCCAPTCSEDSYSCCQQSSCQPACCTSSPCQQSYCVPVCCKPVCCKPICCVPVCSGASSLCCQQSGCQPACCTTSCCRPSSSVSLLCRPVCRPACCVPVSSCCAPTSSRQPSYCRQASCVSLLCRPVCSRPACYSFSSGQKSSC
B6: Rho guanine nucleotide exchange factor 3 (Homo sapiens), Q9NR81 (parent)
chain: MVAKDYPFYLTVKRANCSLELPPASGPAKDAEEPSNKRVKPLSRVTSLANLIPPVKATPLKRFSQTLQRSISFRSESRPDILAPRPWSRNAAPSSTKRRDSKLWSETFDVCVNQMLTSKEIKRQEAIFELSQGEEDLIEDLKLAKKAYHDPMLKLSIMTEQELNQIFGTLDSLIPLHEELLSQLRDVRKPDGSTEHVGPILVGWLPCLSSYDSYCSNQVAAKALLDHKKQDHRVQDFLQRCLESPFSRKLDLWNFLDIPRSRLVKYPLLLREILRHTPNDNPDQQHLEEAINIIQGIVAEINTKTGESECRYYKERLLYLEEGQKDSLIDSSRVLCCHGELKNNRGVKLHVFLFQEVLVITRAVTHNEQLCYQLYRQPIPVKDLLLEDLQDGEVRLGGSLRGAFSNNERIKNFFRVSFKNGSQSQTHSLQANDTFNKQQWLNCIRQAKETVLCAAGQAGVLDSEGSFLNPTTGSRELQGETKLEQMDQSDSESDCSMDTSEVSLDCERMEQTDSSCGNSRHGESNV
partner: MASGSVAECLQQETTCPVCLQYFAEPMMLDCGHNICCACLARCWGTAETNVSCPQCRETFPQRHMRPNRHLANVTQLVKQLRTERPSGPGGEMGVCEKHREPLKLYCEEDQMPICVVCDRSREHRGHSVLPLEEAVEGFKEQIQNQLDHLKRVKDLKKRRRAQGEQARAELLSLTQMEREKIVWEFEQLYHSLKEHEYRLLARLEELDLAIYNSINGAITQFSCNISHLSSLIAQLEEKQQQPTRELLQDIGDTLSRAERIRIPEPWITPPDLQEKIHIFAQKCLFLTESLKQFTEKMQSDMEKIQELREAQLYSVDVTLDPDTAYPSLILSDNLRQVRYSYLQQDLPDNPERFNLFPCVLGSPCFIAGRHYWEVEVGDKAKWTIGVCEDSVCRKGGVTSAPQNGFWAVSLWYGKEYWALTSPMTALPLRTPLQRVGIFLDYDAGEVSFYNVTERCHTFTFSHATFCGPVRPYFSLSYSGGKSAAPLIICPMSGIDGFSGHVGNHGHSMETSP

Variants of: B1
Conditions: with biea_human BLVRA

| effect of a mutation on the interaction | Variant |
| --- | --- |
| disrupting interaction strength | E295K |

Variants of: B2
Conditions: with rbm4b_human RBM4B

| effect of a mutation on the interaction | Variant |
| --- | --- |
| disrupting interaction strength | M1032R |

Variants of: B3
Conditions: with tri54_human TRIM54, Q9BYV2

| effect of a mutation on the interaction | Variant |
| --- | --- |
| disrupting interaction strength | E295K |

Variants of: B4
Conditions: with ub2e2_human UBE2E2, Q96LR5
Chain of ub2e2_human UBE2E2, Q96LR5 (Q96LR5 whole entry): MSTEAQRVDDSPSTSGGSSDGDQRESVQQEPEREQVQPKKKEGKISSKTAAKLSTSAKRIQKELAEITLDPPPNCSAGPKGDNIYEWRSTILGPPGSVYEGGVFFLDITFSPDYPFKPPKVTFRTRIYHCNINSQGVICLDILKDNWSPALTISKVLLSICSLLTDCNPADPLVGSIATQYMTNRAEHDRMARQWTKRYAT

| effect of a mutation on the interaction | Variant |
| --- | --- |
| disrupting interaction strength | M1032R |

Variants of: B4
Conditions: with znf24_human ZNF24, P17028
Chain of znf24_human ZNF24, P17028 (P17028 whole entry): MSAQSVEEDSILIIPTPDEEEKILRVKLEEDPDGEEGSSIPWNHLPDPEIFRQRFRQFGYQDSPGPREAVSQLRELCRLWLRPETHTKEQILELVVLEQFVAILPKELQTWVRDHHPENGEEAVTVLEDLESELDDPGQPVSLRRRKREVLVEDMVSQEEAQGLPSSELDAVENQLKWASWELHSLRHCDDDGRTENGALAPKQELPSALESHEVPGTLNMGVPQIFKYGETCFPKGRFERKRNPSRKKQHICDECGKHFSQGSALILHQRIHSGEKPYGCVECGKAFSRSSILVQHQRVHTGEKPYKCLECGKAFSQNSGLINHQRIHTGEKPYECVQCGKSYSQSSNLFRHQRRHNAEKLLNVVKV

| effect of a mutation on the interaction | Variant |
| --- | --- |
| disrupting interaction strength | M1032R |

Variants of: B4
Conditions: with hnrl1_human HNRNPUL1, Q9BUJ2
Chain of hnrl1_human HNRNPUL1, Q9BUJ2 (Q9BUJ2 whole entry): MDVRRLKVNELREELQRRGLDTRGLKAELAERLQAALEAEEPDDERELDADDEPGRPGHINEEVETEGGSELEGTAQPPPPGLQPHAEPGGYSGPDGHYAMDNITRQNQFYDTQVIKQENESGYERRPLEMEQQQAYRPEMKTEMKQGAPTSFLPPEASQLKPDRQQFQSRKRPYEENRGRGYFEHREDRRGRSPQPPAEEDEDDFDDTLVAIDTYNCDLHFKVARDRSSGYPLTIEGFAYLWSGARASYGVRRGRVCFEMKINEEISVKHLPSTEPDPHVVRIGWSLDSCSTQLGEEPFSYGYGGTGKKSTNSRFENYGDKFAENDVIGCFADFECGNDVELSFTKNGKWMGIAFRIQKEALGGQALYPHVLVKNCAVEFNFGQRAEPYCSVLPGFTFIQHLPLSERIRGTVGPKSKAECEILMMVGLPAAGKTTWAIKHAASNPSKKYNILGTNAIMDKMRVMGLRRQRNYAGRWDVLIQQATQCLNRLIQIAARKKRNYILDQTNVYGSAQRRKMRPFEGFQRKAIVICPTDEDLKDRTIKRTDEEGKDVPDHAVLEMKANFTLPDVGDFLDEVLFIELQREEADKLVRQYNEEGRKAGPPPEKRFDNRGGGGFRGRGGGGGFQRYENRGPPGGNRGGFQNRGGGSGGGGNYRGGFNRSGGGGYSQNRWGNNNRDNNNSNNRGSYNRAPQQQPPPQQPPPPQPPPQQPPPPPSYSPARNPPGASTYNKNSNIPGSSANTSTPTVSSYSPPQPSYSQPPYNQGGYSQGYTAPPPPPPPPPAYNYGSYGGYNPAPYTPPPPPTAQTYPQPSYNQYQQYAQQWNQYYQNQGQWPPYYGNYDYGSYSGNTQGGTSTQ

| effect of a mutation on the interaction | Variant |
| --- | --- |
| with no effect | M1032R |

Variants of: B4
Conditions: with zch10_human ZCCHC10, Q8TBK6
Chain of zch10_human ZCCHC10, Q8TBK6 (Q8TBK6 whole entry): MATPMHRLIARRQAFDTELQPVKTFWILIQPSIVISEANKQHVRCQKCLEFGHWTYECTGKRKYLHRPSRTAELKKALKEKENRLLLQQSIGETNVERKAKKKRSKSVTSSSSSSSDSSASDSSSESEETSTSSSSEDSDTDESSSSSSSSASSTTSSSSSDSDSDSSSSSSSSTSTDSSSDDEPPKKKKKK

| effect of a mutation on the interaction | Variant |
| --- | --- |
| disrupting interaction strength | M1032R |

Variants of: B5
Conditions: with kr109_human KRTAP10-9, P60411

| effect of a mutation on the interaction | Variant |
| --- | --- |
| with no effect | I448T |

Variants of: B6
Conditions: with tri27_human TRIM27, P14373

| effect of a mutation on the interaction | Variant |
| --- | --- |
| with no effect | P34S |
